Key:
[1] = target: YFP-tagged wild-type HIV-1 protease subunit (PRWT^YFP) (HIV-1 (HIV-1NL4-3)) (UniProt P12497); experiment: FRET, acceptor photobleaching, co-transfected Cos-7 cells
[2] = target: YFP-tagged wild-type HIV-1 protease subunit (PRWT^YFP) (HIV-1 (HIV-1NL4-3)) (UniProt P12497); experiment: FRET, acceptor photobleaching, co-transfected Cos-7 cells (n=23)
[3] = target: YFP-tagged wild-type HIV-1 protease subunit (PRWT^YFP) (HIV-1 (HIV-1NL4-3)) (UniProt P12497); experiment: FRET, acceptor photobleaching, co-transfected Cos-7 cells, no-drug control of FIG. 2D
[4] = target: YFP-tagged wild-type HIV-1 protease subunit (PRWT^YFP) (HIV-1 (HIV-1NL4-3)) (UniProt P12497); experiment: FRET, acceptor photobleaching, co-transfected Cos-7 cells, no-drug control of FIG. 2F
[5] = target: HIV-PRD29A^YFP (HIV-1 (HIV-1NL4-3)) (UniProt P12497); experiment: FRET-HIV-1 assay, co-transfected Cos-7 cells
[6] = target: HIV-PRD29N^YFP (HIV-1 (HIV-1NL4-3)) (UniProt P12497); experiment: FRET-HIV-1 assay, co-transfected Cos-7 cells
[7] = target: HIV-PRR87K^YFP (HIV-1 (HIV-1NL4-3)) (UniProt P12497); experiment: FRET-HIV-1 assay, co-transfected Cos-7 cells
[8] = target: HIV-PRT26A^YFP (HIV-1 (HIV-1NL4-3)) (UniProt P12497); experiment: FRET-HIV-1 assay, co-transfected Cos-7 cells

Q: Which results are given for “CFP-tagged wild-type HIV-1 protease subunit (PRWT^CFP) (from UniProt P12497) (enzyme)”?
A: CFP^A/B ratio [1]: 1.38; YFP^A/B ratio [1]: 0.17; ratio of CFP fluorescence after photobleaching to CFP fluorescence prior to photobleaching [1]: 1.19; CFP^A/B ratio [2]: 1.24; YFP^A/B ratio [2]: 0.47; ratio of ECFP fluorescence after photobleaching to before photobleaching [3]: 1.27; FRET ratio [4]: 1.29

Q: “HIV-PRD29A^CFP (from UniProt P12497) (enzyme)” was tested. Which average CFP A/B ratio [5] did it give?
A: < 1

Q: Which average CFP A/B ratio [6] does the source give for “HIV-PRD29N^CFP (from UniProt P12497) (enzyme)” here?
A: < 1

Q: How did the average CFP A/B ratio [7] turn out when “HIV-PRR87K^CFP (from UniProt P12497) (enzyme)” was run?
A: < 1

Q: With “HIV-PRT26A^CFP (from UniProt P12497) (enzyme)” as the substance, how does the average CFP A/B ratio [8] read?
A: < 1
